Measured values reported in a protein production outcome set (Wang et al. 2014).

test: label from the status in PepcDB records
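Note: failed if final PepcDB status was selected cloned or expressed and not failed if soluble or beyond.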

Protein production, not failed:
MDPDNRVRQRAVKTLGKRGNPDVLEDLMEALKDSRQPVQEAASEALRKIIAASDSVPVLVKALDATDRNVRKAAIEALWKAGTPEAIPPLLRELDDADWYLRSRAADALADIASPEAALGLIKVMDIHDSPVKKIIVNALGKIGTVEAVEGLVKALEDLEHHHHHH
MDQTIHHQIQQALHFRTAVRVYKEEKISDEDLALILDAAWLSPSSIGLEGWRFVVLDNKPIKEEIKPFAWGAQYQLETASHFILLIAEKHARYDSPAIKNSLLRRGIKEGDGLNSRLKLYESFQKEDMDMADNPRALFDWTAKQTYIALGNMMMTAALLGIDTCPIEGFHYDKVNHILAKHNVIDLEKEGIASMLSLGYRLRDPKHAQVRKPKEEVISVVK
MDRIVEIEKYSFDETYETSLRPSNFDGYIGQESIKKNLNVFIAAAKKRNECLDHILFSGPAGLGKTTLANIISYEMSANIKTTAAPMIEKSGDLAAILTNLSEGDILFIDEIHRLSPAIEEVLYPAMEDYRLDIIIGSGPAAQTIKIDLPKFTLIGATTRAGMLSNPLRDRFGMQFRLEFYKDSELALILQKAALKLNKTCEEKAALEIAKRSRSTPRIALRLLKRVRDFADVNDEEIITEKRANEALNSLGVNELGFDAMDLRYLELLTAAKQKPIGLASIAAALSEDENTIEDVIEPYLLANGYIERTAKGRIASAKSYSALKLNYEKTLFEE
MDRKLLHLLCSPDTRQPLSLLESKGLEALNKAIASGTVQRADGSIQNQSLHEALITRDRKQVFRIEDSIPVLLPEEAIATIQIANFPDKLEHHHHHH
MDRLNQIQIILVETSLSANIGSAARAMKTMGLSNLRLVRPKNPLDEQATALAAGAKNILDNAQIFNTFDAAIADCQLIIGTSARLRHLQSTLVEPRECGKLIINNTNQHKIALIFGRERIGLTNEELLKCHYHLNVPTNPEYESLNLAMAVQLACYEIRMAWLELQKKPIIQPLTEEKNYPTAAAMAHFFDHTERL

Protein production, failed:
MDNANCVGGCKFETRSFQYRRRIPYSLGADPLPPVHPLSLKNLVDIDTDLISSQLYELYDSIILNDSGLERRYAFVQKLEQILKKEFPYKNIKTSLFGSTQSLLASNASDIDLCIITDPPQCAPTTCEVSAAFARNGLKKVVCISTAKVPIVKVWDSELQLSCDCNINKTISTLNTRLMRSYVLCDPRVRPLIVMIKYWAKRRCLNDAAEGGTLTSYTISCMVINFLQKRDPPILPSLQMLPHLQDSSTMTDGLDVSFFDDPDLVHGFGDKNEESLGILFVEFFRFFGYLFDYEHFVLSIRHGTFLSKRAKGWQFQLNNFLCVEEPFHTSRNLANTADEITMKGIQLEFRRVFRLLAYNCNVDDACSQFTFPSLTDTSFMDDYVNELQLEIVPGFSHGRDSSDTSCTESPPEPSHFAWAFDPYNATASPYYNQNINSSIDYSSIYSNDVPAIPPNVPYTFVDPYTYACYINNNSYLPPSYMDFYTWYNSPYPKSSHHFDERHGGDRHEKNLSNSRRYSRNKFHKKKQSSGPFQYYPDAFSFTPTDNNSPPSNSSSSEVVSPVSLHSEPVLSTVQAFKS
MDNITNESDNLIQIFSHNPLALISCIILGIGLLFTFASRQFILVRVLLGNVSFIKQRILGVIFGIVGALLLLFATGNLNL
MDNLMLNNKIYLEGTVVSELEFSHEMYGEGFYTFNLEVMRLSDSKDLLNITVSERLITTMDLKIGTEIVVEGQLRSYNKFIDGNNKLILTVFARNIEYCEERSKNPNEIFLDGFICKEPVYRTTPFGREIADLLLAVNRSYNKSDYIPTIAWGRNSRFCKTLEVGDNIRIWGRLQSREYQKKISETEVVKKIAYEVSISKMEKVSVESEQNESGEEISLEHHHHHH
MDNLNVFANEDNQVNGLKRPPPSRVCPRCDSDNTKFCFYNNYSESQPRYFCKNCRRYWTHGGALRNIPVGGSCRKPKRLKVDQSSISEMVSVENQPINHQSFRQTQENNEFVRSFDASSSATVTAVPNHFGYLSELHGVTNLLPIQSFRTMDCLDFGDESFQQGYYDVGSNDLIDNPLINQSIGGYVDNLTSYCINQVEPKLQPRYEHES
MDNRKRLAYAIIQFLHGQLRHGGLSCDAQESLEVAIQCLETAFGVTLEDSDLALPQTLPEIFEAATSSKQEMPQDPRAPDRTPPSEEDSAEAERLKTEGNEQMKLENFEAAVHLYGKAIELNPANAVYFCNRAAAYSKLGNYVGAVQDCERAIGIDPGYSKAYGRMGLALSSLNKHAEAVAYYKKALELDPDNDTYKSNLKIAELKLREAPSPTGGVGSLDIAGLLNNPHFITMASSLMNSPQLQQLMSGMISGGHNPLGTPGSSPQQSDLASLIQAGQQFAQQMQQQNPEFVEQIRSQVVRSRTPSASHEEQQE
MDNRSASLHSDIDTVLNNYDYDFAEVEIAVLGNGHINNTYKLTTPEVEFVLQQINHDVFPKTAELSSNAQKINLHLQRQKNIGNYPLSIPQQILSKTGETYSKVGTNYWRLMEFISNSYTLEEVESPEQAALVANAFAEFSCTLSDFPVEELAVIIEDFHDISFRMRQLNEAVENDLQDRLSSCQTLVNFCLDQQDFINHVIDISKKLPLHVTHNDTKINNLLFTEGDTPCAVIDLDTCMPGLLMHDFGDMVRTCCSNLAEDDTNIDAMIIKLDIFSALIQSYQNAFGTKMSALEKDSLIVGTKSVPFSLGTRFLTDYLNGDSYFQVSREKHNLDRAFNQIQLFILLCEAEPELIKLAMQALEHHHHHH
MDNVIKLVPSRWVSESVLMSISGLKKNTIKTARETSWMEGLEYKHVAPDGQPYDNSMCFYNRDEIDKWIERQPAAISRKKSA
MDPITHGALGAACAQAALGKYDKRIPWQAGALAGMAPDLDVFIRFSQEPLSLEQWHRYLTHSLMFIPIGGLIVALFLLCFSQYRQYWKITIGASLVGYATHCLLDSLTSYGTVLFWPWSDSRISWDIISIIDPVFTLPLLLGTAWSVIYQNQKAVIASLFFCILFLIFNTILHNRAVDGIHQYATTNNFKINHPRALPKLASSTYWRIIAKQQDCLIIAEAKTSLFYPTTIRLIRQALSFNESMIPFALSSGQKSDLATFHWFTDGFLIVANKNPLILADARYTIDDNPIFSLWGIEILPGQEHINKLSLPKINEYCESPDSERYKEDGLN
MDPKHKKLLRTQRLFLSEELLVDDLIIQYLYQEEILTESHLEEIQSESSSRNKTLKLLDILPSRGATAFHHFIKSLEKDFPWIRDKLLQLNEEEESPPPPFTVQCGVPDHILLTVPTTLHLNQLASRLGSEWKSVLLDLGLSCADLYRCCSDHPLAVQSQVLAGLVMWTQRNGRGATVQRLIQSLQAADVPPSVLQQVFK
MDPSEYPFDIKAYKRQSEIEEMYIINRFRERRNKIGEDYPPHLSNSDNYFTQRYDAAKKEGISPLPKYTTTMRMFAYGVAADAVDEYSKIGGTTTLECLRRFCKGIIKLYETEYLRAPTQDDLQRILRVSEMRGFPGIIGSINCMQWEWKTCPTVWEGNTTRVNFFVSQHPYNIAYYLADGIYPSYPTFVKSIRLPQSEPDKLFVQRQEACHKDIERAFGVLQARFKIIRKPAGLWDIFELAIIMRSCKWVEYTTTILDPSATPICKSCA
MDPTEMRYLEEENGAMMKTFKDAVTGFATGKTSLVFIGVEQLVQNFRAKRDFFNGAHITMTKVARTHY
MDQCYFENSLSTECIIRSASRSDGCQMPKLFCQNLPPPLPPKKYAITSVPQSEKSESTPDVKLTEVFKATSHLPKHSLSTASEPSLEVSTHMNDERHKETFQVRECFGNTPNCPSSSSTNDFQANSGAIDAFCQPELDSISTCPNETVSLTTYFSVDSCMTDTYRLKYHQRPKLSFPESSGFCNNSLS
MDQKEAPSFTEASVHDPSVIKVEDTFYVFGSHLAAAKTEDLRNWTQIATHVHEGNPLIPNVFVELAEAFEWANSNTLWAADVIQLEDGRFYMYYNACQGDAPRSALGVAVADDIEGPYENLGVFLKSGMWGEESPDGTIYDANVHPNAIDPHVFFDEEGKLWMVYGSYSGGIFILEMDPDTGFPLPGQGYGTHLMGGNHSRIEAPYIHYDKETEYYYLYVTFGGLDSTGGYNMRVARSKQPDGPYVDGEGHLMSEVRGAPGTLFDDASIEPYGVKQMGNFLFKRELGERGTGYVSPGHNSVYYDDEVDKIFLFFHTRFPERGEAHEIRVHQMFMNRKGWPVIAPYRYLEHHHHHH
MDRAAFPDCCVFLFGFFRRDFGAAGLYGMHDAGLLTGVQLVVAAITLTLFMLCIAQFMMTVKERGFKMALAISGFIFPSALLAGFIVNTLMTALRVKL
MDRATEPVLFFFMAFFWALNYVMVKFAYAYDLSSSILLMRVLYASIFSSLIFIRQIKLPKSPLEHLKVFILANLNITGFFSLWFFGETGVSAAVTSIVIYSYPILATAFSYLFLGDRFGAMKTLGLILGFAGLVIIFIRSINVENLVDLIMLLVAAISWAIGTVFYRKYLLGYDSAGLNTLQLLYALPVVLLISLFTGGINIGLLQLKFNLIMIYMGSFGTAIAYFIYLYLYRKYKVSSISAYFFLVPAISVVLAAVLLKEPISALTIAGFAVMSAGIFLSGSFK
MDRFDAMRAFARVVETGSFTKAADTLHMSKTSVTQLVQQLEARLRVRLLNRTTRKVNATADGAAYYERVRQLLADLEDAETSLSGASATPGGRLRVDVPSPFASTILVPALPAFQARYPDILLHLGVSDREVDLIDENVDCVIRGGQIGNLSLAARHVGDLQLGVYASPGYLARAGVPAHPRELQDAQHRIIGFSWSRARRLFPCAMRRRADERIEVAGRHALLLDEGNAYLAAGLAAMGVIGVPTYMAEAHVERGALIRLFGDWRLDPMPLYIAYPQNRHVSAKLRVFIDWIVELMARHAPVTDAPPPHRSARMPGGPAAIPTDITGA
MDRLAHMQMFVAVVEAGSITAAAERMNLAKSAVSRRLAELEAGLGVSLIQRTTRRLNLTESGRTYYARCVAILADVEDAEAEVSQGHGALRGRLKVALPQAFGLLHLAPLIQTFMKRHPDVRLELDFNDRQVDLMQEGFDLAIRIATLADSTLIARRLAAIPHRVVASPGYLARRGTPRAAADLTQHDCLAYSNVRDPGLWSYRDPGGEPGQVRVVVRLAASSGEFLLQAAIADEGLVLLPAFYLHAALRSGQLSEVLADHRWPEPAAYAVYPPTRHLSARAHAFIDFLAGHLGGAGEPPAGDEVAPTLAPNTSAG
MDRNEIGLNAGKVWQLLSNNEKWGYGTLKRKSGLKDKELGAALGWLSRENKIEFDQCDEELYVYLCVNVYIG
MDRNGANMLDGRVESDAKGSFRKDYTKMENNNNGANISDGIYRIIRSFKSFSHFFIRYEEETKEREAEMEIGFPTDVKHLSHIGVDGTMTTFDNTSSSFPFSGFHLTGTVV
MDRNSKIVVGLVAVLSIAGLVLSLAGLLEGGEGTIAIIPVHGAIAYDTAGFSDGVDPDDIKELIAEANSDPSVKAIVLDINSPGGTPVASEELMDAINKSEKPVVSWISDSGTSGAYLAASASDRIVASPSAWVGSIGVILDLTDLSQMYRQMGINKYAIKAGEYKDMGADYRMITDEERQMLQSMVNEEYDYFIKTVAANRNLSVSYVKSLAEGRIFTGRQAVRNRLVDFTGGKDYAVEVAAKLAGVKNYNTITLEPPSGFLRVLSSMFSRLGFASGNTTEELQLH
MDRRDAMGLSGSGSYYIHRGLSGSGPPTFHGSPQQQQGLRHLPNQNSPFGSGSTGFGSPSLHGDPSLATAAGGAGALPHHIGVNMIAPPPPPSETPMKRKRGRPRKYGQDGSVSLALSSSSVSTITPNNSNKRGRGRPPGSGKKQRMASVGELMPSSSGMSFTPHVIAVSIGEDIASKVIAFSQQGPRAICVLSASGAVSTATLIQPSASPGAIKYEGRFEILALSTSYIVATDGSFRNRTGNLSVSLASPDGRVIGGAIGGPLIAASPVQVIVGSFIWAAPKIKSKKREEEASEVVQETDDHHVLDNNNNTISPVPQQQPNQNLIWSTGSRQMDMRHAHADIDLMRG
